B1: TRIM43 (parent)
chain: FCDMDKSLLCLLCSNSQEHGAHKH
B2: KLHL20 (parent)
chain: YQDMIYAVGGRDDTTELSSAERYN

Variants of: B1
Experiment: protein stability index of a GFP-peptide fusion (GPS, HEK-293T) (PSI 1-6); higher = more stable
Details: c terminus: a fixed tail appended
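Also: lentivirally expressed fusions sorted by FACS into six bins by GFP to DsRed ratio, PSI derived from sequencing read proportions per bin multiplied by bin number.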

Variant	protein stability index
FCDMDKSLLCLLCSNSQEHPAHKH [G20P]	2.27
FCDMDKSLLCLLCSNSQEHRAHKH [G20R]	1.9
FCDMDKSLLCLLCSNSQEHTAHKH [G20T]	2.12
FCDMDKSLLCLLCSNSQEHLAHKH [G20L]	1.74
FCDMDKSLLCLLCSNSQEHYAHKH [G20Y]	2.28
FCDMDKSLLCLLCSNSQEHEAHKH [G20E]	2.36
FCDMDKSLLCLLCSNSQEHSAHKH [G20S]	1.99
FCDMDKSLLCLLCSNSQEHHAHKH [G20H]	1.92
FCDMDKSLLCLLCSNSQEHWAHKH [G20W]	1.56
FCDMDKSLLCLLCSNSQEHMAHKH [G20M]	1.47
FCDMDKSLLCLLCSNSQEHFAHKH [G20F]	1.67
FCDMDKSLLCLLCSNSQEHQAHKH [G20Q]	1.95
FCDMDKSLLCLLCSNSQEHIAHKH [G20I]	1.66
FCDMDKSLLCLLCSNSQEHNAHKH [G20N]	2.03
FCDMDKSLLCLLCSNSQEHKAHKH [G20K]	1.93
FCDMDKSLLCLLCSNSQEHVAHKH [G20V]	2.35
FCDMDKSLLCLLCSNSQEHGVHKH [A21V]	1.85
FCDMDKSLLCLLCSNSQEHGCHKH [A21C]	2.38
FCDMDKSLLCLLCSNSQEHGHHKH [A21H]	1.98
FCDMDKSLLCLLCSNSQEHGEHKH [A21E]	1.83
FCDMDKSLLCLLCSNSQEHGNHKH [A21N]	1.84
FCDMDKSLLCLLCSNSQEHGTHKH [A21T]	2.07
FCDMDKSLLCLLCSNSQEHGLHKH [A21L]	1.97

Variant	protein stability index
FCDMDKSLLCLLCSNSQEHGGHKH [A21G]	2.26
FCDMDKSLLCLLCSNSQEHGMHKH [A21M]	2.33
FCDMDKSLLCLLCSNSQEHGFHKH [A21F]	2.1
FCDMDKSLLCLLCSNSQEHGYHKH [A21Y]	1.48
FCDMDKSLLCLLCSNSQEHGIHKH [A21I]	1.47
FCDMDKSLLCLLCSNSQEHGQHKH [A21Q]	2.23
FCDMDKSLLCLLCSNSQEHGSHKH [A21S]	2.02
FCDMDKSLLCLLCSNSQEHGDHKH [A21D]	2.08
FCDMDKSLLCLLCSNSQEHGPHKH [A21P]	2.22
FCDMDKSLLCLLCSNSQEHGWHKH [A21W]	1.54
FCDMDKSLLCLLCSNSQEHGKHKH [A21K]	1.98
FCDMDKSLLCLLCSNSQEHGRHKH [A21R]	2.16
FCDMDKSLLCLLCSNSQEHGAAKH [H22A]	1.77
FCDMDKSLLCLLCSNSQEHGANKH [H22N]	1.75
FCDMDKSLLCLLCSNSQEHGACKH [H22C]	2.59
FCDMDKSLLCLLCSNSQEHGAMKH [H22M]	1.48
FCDMDKSLLCLLCSNSQEHGASKH [H22S]	1.73
FCDMDKSLLCLLCSNSQEHGARKH [H22R]	1.84
FCDMDKSLLCLLCSNSQEHGAPKH [H22P]	1.69
FCDMDKSLLCLLCSNSQEHGAQKH [H22Q]	1.91
FCDMDKSLLCLLCSNSQEHGAWKH [H22W]	1.45
FCDMDKSLLCLLCSNSQEHGAVKH [H22V]	1.7
FCDMDKSLLCLLCSNSQEHGAYKH [H22Y]	1.87

Variant	protein stability index
FCDMDKSLLCLLCSNSQEHGADKH [H22D]	2.11
FCDMDKSLLCLLCSNSQEHGAGKH [H22G]	1.78
FCDMDKSLLCLLCSNSQEHGATKH [H22T]	1.79
FCDMDKSLLCLLCSNSQEHGALKH [H22L]	1.61
FCDMDKSLLCLLCSNSQEHGAEKH [H22E]	1.53
FCDMDKSLLCLLCSNSQEHGAFKH [H22F]	2.17
FCDMDKSLLCLLCSNSQEHGAKKH [H22K]	1.73
FCDMDKSLLCLLCSNSQEHGAIKH [H22I]	2.17
FCDMDKSLLCLLCSNSQEHGAHKQ [H24Q]	2.22
FCDMDKSLLCLLCSNSQEHGAHKL [H24L]	1.53
FCDMDKSLLCLLCSNSQEHGAHKN [H24N]	2.26
FCDMDKSLLCLLCSNSQEHGAHKV [H24V]	2.04
FCDMDKSLLCLLCSNSQEHGAHKG [H24G]	1.77
FCDMDKSLLCLLCSNSQEHGAHKA [H24A]	1.72
FCDMDKSLLCLLCSNSQEHGAHKE [H24E]	1.65
FCDMDKSLLCLLCSNSQEHGAHKS [H24S]	1.58
FCDMDKSLLCLLCSNSQEHGAHKK [H24K]	1.89
FCDMDKSLLCLLCSNSQEHGAHKD [H24D]	2.18
FCDMDKSLLCLLCSNSQEHGAHKT [H24T]	1.66
FCDMDKSLLCLLCSNSQEHGAHKM [H24M]	1.48
FCDMDKSLLCLLCSNSQEHGAHKY [H24Y]	1.36
FCDMDKSLLCLLCSNSQEHGAHKW [H24W]	1.84
FCDMDKSLLCLLCSNSQEHGAHKC [H24C]	2.4

Variant	protein stability index
FCDMDKSLLCLLCSNSQEHGAHKP [H24P]	1.69
FCDMDKSLLCLLCSNSQEHGAHKF [H24F]	1.43
FCDMDKSLLCLLCSNSQEHGAHKI [H24I]	1.7
FCDMDKSLLCLLCSNSQEHGAHKR [H24R]	1.86
FCDMDKSLLCLLCSNSQEHGAHMH [K23M]	1.91
FCDMDKSLLCLLCSNSQEHGAHVH [K23V]	2.06
FCDMDKSLLCLLCSNSQEHGAHIH [K23I]	2.17
FCDMDKSLLCLLCSNSQEHGAHLH [K23L]	1.63
FCDMDKSLLCLLCSNSQEHGAHNH [K23N]	1.89
FCDMDKSLLCLLCSNSQEHGAHAH [K23A]	2.06
FCDMDKSLLCLLCSNSQEHGAHRH [K23R]	2.18
FCDMDKSLLCLLCSNSQEHGAHHH [K23H]	2.13
FCDMDKSLLCLLCSNSQEHGAHFH [K23F]	1.82
FCDMDKSLLCLLCSNSQEHGAHSH [K23S]	2.25
FCDMDKSLLCLLCSNSQEHGAHQH [K23Q]	1.64
FCDMDKSLLCLLCSNSQEHGAHEH [K23E]	2.05
FCDMDKSLLCLLCSNSQEHGAHTH [K23T]	2.02
FCDMDKSLLCLLCSNSQEHGAHCH [K23C]	1.82
FCDMDKSLLCLLCSNSQEHGAHDH [K23D]	2.4
FCDMDKSLLCLLCSNSQEHGAHWH [K23W]	1.94
FCDMDKSLLCLLCSNSQEHGAHPH [K23P]	2.06
FCDMDKSLLCLLCSNSQEHGAHGH [K23G]	1.53
FCDMDKSLLCLLCSNSQEHGAHYH [K23Y]	1.43

Variants of: B2
Experiment: as above
Details: c terminus: a fixed tail appended

Variant	protein stability index
YQDMIAAVGGRDDTTELSSAERYN [Y6A]	3.85
YQGMIYAVGGRDDTTELSSAERYN [D3G]	1.47
YQFMIYAVGGRDDTTELSSAERYN [D3F]	1.88
YQVMIYAVGGRDDTTELSSAERYN [D3V]	1.86
YQQMIYAVGGRDDTTELSSAERYN [D3Q]	3.08
YQIMIYAVGGRDDTTELSSAERYN [D3I]	2.26
YQMMIYAVGGRDDTTELSSAERYN [D3M]	1.81
YQKMIYAVGGRDDTTELSSAERYN [D3K]	2.79
YQYMIYAVGGRDDTTELSSAERYN [D3Y]	1.77
YQRMIYAVGGRDDTTELSSAERYN [D3R]	2.83
YQHMIYAVGGRDDTTELSSAERYN [D3H]	2.15
YQWMIYAVGGRDDTTELSSAERYN [D3W]	2.03
YQAMIYAVGGRDDTTELSSAERYN [D3A]	1.7
YQCMIYAVGGRDDTTELSSAERYN [D3C]	2.15
YQTMIYAVGGRDDTTELSSAERYN [D3T]	1.56
YQPMIYAVGGRDDTTELSSAERYN [D3P]	3.4
YQNMIYAVGGRDDTTELSSAERYN [D3N]	2.63
YQSMIYAVGGRDDTTELSSAERYN [D3S]	1.99
YQEMIYAVGGRDDTTELSSAERYN [D3E]	2.48
YQLMIYAVGGRDDTTELSSAERYN [D3L]	1.81
YMDMIYAVGGRDDTTELSSAERYN [Q2M]	3.03
YHDMIYAVGGRDDTTELSSAERYN [Q2H]	2.83
YSDMIYAVGGRDDTTELSSAERYN [Q2S]	3.61
YDDMIYAVGGRDDTTELSSAERYN [Q2D]	4.86

Variant	protein stability index
YNDMIYAVGGRDDTTELSSAERYN [Q2N]	4.27
YKDMIYAVGGRDDTTELSSAERYN [Q2K]	4.2
YIDMIYAVGGRDDTTELSSAERYN [Q2I]	1.58
YADMIYAVGGRDDTTELSSAERYN [Q2A]	2.3
YFDMIYAVGGRDDTTELSSAERYN [Q2F]	2.79
YCDMIYAVGGRDDTTELSSAERYN [Q2C]	2.02
YRDMIYAVGGRDDTTELSSAERYN [Q2R]	3.6
YTDMIYAVGGRDDTTELSSAERYN [Q2T]	2.22
YGDMIYAVGGRDDTTELSSAERYN [Q2G]	3.28
YVDMIYAVGGRDDTTELSSAERYN [Q2V]	1.96
YLDMIYAVGGRDDTTELSSAERYN [Q2L]	2.85
YEDMIYAVGGRDDTTELSSAERYN [Q2E]	5.02
YWDMIYAVGGRDDTTELSSAERYN [Q2W]	2.87
YPDMIYAVGGRDDTTELSSAERYN [Q2P]	3.58
YYDMIYAVGGRDDTTELSSAERYN [Q2Y]	3.17
QQDMIYAVGGRDDTTELSSAERYN [Y1Q]	4.75
NQDMIYAVGGRDDTTELSSAERYN [Y1N]	4.96
AQDMIYAVGGRDDTTELSSAERYN [Y1A]	4.78
RQDMIYAVGGRDDTTELSSAERYN [Y1R]	4.89
VQDMIYAVGGRDDTTELSSAERYN [Y1V]	4.5
HQDMIYAVGGRDDTTELSSAERYN [Y1H]	4.5
IQDMIYAVGGRDDTTELSSAERYN [Y1I]	4.05
SQDMIYAVGGRDDTTELSSAERYN [Y1S]	4.89
MQDMIYAVGGRDDTTELSSAERYN [Y1M]	4.1

Variant	protein stability index
GQDMIYAVGGRDDTTELSSAERYN [Y1G]	4.66
FQDMIYAVGGRDDTTELSSAERYN [Y1F]	1.89
CQDMIYAVGGRDDTTELSSAERYN [Y1C]	4.21
TQDMIYAVGGRDDTTELSSAERYN [Y1T]	4.58
PQDMIYAVGGRDDTTELSSAERYN [Y1P]	4.57
EQDMIYAVGGRDDTTELSSAERYN [Y1E]	5.08
DQDMIYAVGGRDDTTELSSAERYN [Y1D]	5.33
KQDMIYAVGGRDDTTELSSAERYN [Y1K]	4.39
WQDMIYAVGGRDDTTELSSAERYN [Y1W]	2.85
LQDMIYAVGGRDDTTELSSAERYN [Y1L]	4.26
YQDMTYAVGGRDDTTELSSAERYN [I5T]	3.17
YQDMEYAVGGRDDTTELSSAERYN [I5E]	3.98
YQDMSYAVGGRDDTTELSSAERYN [I5S]	3.53
YQDMWYAVGGRDDTTELSSAERYN [I5W]	2.48
YQDMLYAVGGRDDTTELSSAERYN [I5L]	2.61
YQDMVYAVGGRDDTTELSSAERYN [I5V]	2.53
YQDMNYAVGGRDDTTELSSAERYN [I5N]	3.09
YQDMYYAVGGRDDTTELSSAERYN [I5Y]	2.21
YQDMAYAVGGRDDTTELSSAERYN [I5A]	2.28
YQDMKYAVGGRDDTTELSSAERYN [I5K]	3.39
YQDMRYAVGGRDDTTELSSAERYN [I5R]	2.71
YQDMFYAVGGRDDTTELSSAERYN [I5F]	1.79
YQDMGYAVGGRDDTTELSSAERYN [I5G]	3.14
YQDMPYAVGGRDDTTELSSAERYN [I5P]	2.72

Variant	protein stability index
YQDMDYAVGGRDDTTELSSAERYN [I5D]	3.99
YQDMMYAVGGRDDTTELSSAERYN [I5M]	2.77
YQDMCYAVGGRDDTTELSSAERYN [I5C]	2.52
YQDMQYAVGGRDDTTELSSAERYN [I5Q]	4.11
YQDMHYAVGGRDDTTELSSAERYN [I5H]	2.65
YQDCIYAVGGRDDTTELSSAERYN [M4C]	2.68
YQDFIYAVGGRDDTTELSSAERYN [M4F]	1.84
YQDTIYAVGGRDDTTELSSAERYN [M4T]	3.15
YQDDIYAVGGRDDTTELSSAERYN [M4D]	3.48
YQDRIYAVGGRDDTTELSSAERYN [M4R]	2.75
YQDKIYAVGGRDDTTELSSAERYN [M4K]	2.65
YQDHIYAVGGRDDTTELSSAERYN [M4H]	2.55
YQDNIYAVGGRDDTTELSSAERYN [M4N]	3.12
YQDIIYAVGGRDDTTELSSAERYN [M4I]	2.4
YQDQIYAVGGRDDTTELSSAERYN [M4Q]	2.66
YQDSIYAVGGRDDTTELSSAERYN [M4S]	3.27
YQDVIYAVGGRDDTTELSSAERYN [M4V]	3.02
YQDPIYAVGGRDDTTELSSAERYN [M4P]	2.6
YQDWIYAVGGRDDTTELSSAERYN [M4W]	2.85
YQDGIYAVGGRDDTTELSSAERYN [M4G]	2.48
YQDEIYAVGGRDDTTELSSAERYN [M4E]	3.68
YQDLIYAVGGRDDTTELSSAERYN [M4L]	2.31
YQDAIYAVGGRDDTTELSSAERYN [M4A]	2.51
YQDYIYAVGGRDDTTELSSAERYN [M4Y]	2.77

— the supplement of paper PMC10567573
